# Measured values as given in article PMC4860839, “Structures of the APC–ARM domain in complexes with discrete Amer1/WTX fragments reveal that it uses a consensus mode to recognize its binding partners” (Cell Discovery, 2015).
# B1: pBTM-APC–ARM (residues 308–789), two-hybrid bait [human] / Amer1-A4 (human, residues 337–455), two-hybrid prey [human] (parent complex)
# chain 1: LGTKVEMVYSLLSMLGTHDKDDMSRTLLAMSSSQDSCISMRQSGCLPLLIQLLHGNDKDSVLLGNSRGSKEARARASAALHNIIHSQPDDKRGRREIRVLHLLEQIRAYCETCWEWQEAHEPGMDQDKNPMPAPVEHQICPAVCVLMKLSFDEEHRHAMNELGGLQAIAELLQVDCEMYGLTNDHYSITLRRYAGMALTNLTFGDVANKATLCSMKGCMRALVAQLKSESEDLQQVIASVLRNLSWRADVNSKKTLREVGSVKALMECALEVKKESTLKSVLSALWNLSAHCTENKADICAVDGALAFLVGTLTYRSQTNTLAIIESGGGILRNVSSLIATNEDHRQILRENNCLQTLLQHLKSHSLTIVSNACGTLWNLSARNPKDQEALWDMGAVSMLKNLIHSKHKMIAMGSAAALRNLMANRPAKYKDANIMSPGSSLPSLHVRKQKALEAELDAQHLSETFDNIDNLSPKASHRSKQ
# chain 2: MDSMTDSMASGGQRANRDGTKRSSCLVTYQGGGEEMALPDDDDEEEEEEEEVELEEEEEEVKEEEEDDDLEYLWETAQMYPRPNMNLGYHPTTSPGHHGYMLLDPVRSYPGLAPGELLT
# B2: pBTM-APC–ARM (residues 308–789), two-hybrid bait [human] / Amer1-A1 (murine, residues 279–367), two-hybrid prey [murine] (parent complex)
# chain 1: B1 chain 1
# chain 2: SLEEPHTSETEGKVVAGEVNPPNGPVGDQLSLLFGDVTSLKSFDSLTGCGDIIAEQDMDSMTDSMASGGQRANRDGTKRSSCLVTYQGG
# Variants of: B1
# Assay: yeast two-hybrid assay (relative β-galactosidase reporter activity); parent: 100
row,percent of parent [%],Variant
1,0.28,chain 1 LGTKVEMVYSLLSMLGTHDKDDMSRTLLAMSSSQDSCISMRQSGCLPLLIQLLHGNDKDSVLLGNSRGSKEARARASAALHNIIHSQPDDKRGRREIRVLHLLEQIRAYCETCWEWQEAHEPGMDQDKNPMPAPVEHQICPAVCVLMKLSFDEEHRHAMNELGGLQAIAELLQVDCEMYGLTNDHYSITLRRYAGMALTNLTFGDVANKATLCSMKGCMRALVAQLKSESEDLQQVIASVLRKLSWRADVNSKKTLREVGSVKALMECALEVKKESTLKSVLSALWNLSAHCTENKADICAVDGALAFLVGTLTYRSQTNTLAIIESGGGILRNVSSLIATNEDHRQILRENNCLQTLLQHLKSHSLTIVSNACGTLWNLSARNPKDQEALWDMGAVSMLKNLIHSKHKMIAMGSAAALRNLMANRPAKYKDANIMSPGSSLPSLHVRKQKALEAELDAQHLSETFDNIDNLSPKASHRSKQ [chain 1 N243K]
2,3.93,chain 1 LGTKVEMVYSLLSMLGTHDKDDMSRTLLAMSSSQDSCISMRQSGCLPLLIQLLHGNDKDSVLLGNSRGSKEARARASAALHNIIHSQPDDKRGRREIRVLHLLEQIRAYCETCWEWQEAHEPGMDQDKNPMPAPVEHQICPAVCVLMKLSFDEEHRHAMNELGGLQAIAELLQVDCEMYGLTNDHYSITLRRYAGMALTNLTFGDVANEATLCSMKGCMRALVAQLKSESEDLQQVIASVLRNLSWRADVNSKKTLREVGSVKALMECALEVKKESTLKSVLSALWNLSAHCTENKADICAVDGALAFLVGTLTYRSQTNTLAIIESGGGILRNVSSLIATNEDHRQILRENNCLQTLLQHLKSHSLTIVSNACGTLWNLSARNPKDQEALWDMGAVSMLKNLIHSKHKMIAMGSAAALRNLMANRPAKYKDANIMSPGSSLPSLHVRKQKALEAELDAQHLSETFDNIDNLSPKASHRSKQ [chain 1 K209E]
3,0.28,chain 1 LGTKVEMVYSLLSMLGTHDKDDMSRTLLAMSSSQDSCISMRQSGCLPLLIQLLHGNDKDSVLLGNSRGSKEARARASAALHNIIHSQPDDKRGRREIRVLHLLEQIRAYCETCWEWQEAHEPGMDQDKNPMPAPVEHQICPAVCVLMKLSFDEEHRHAMNELGGLQAIAELLQVDCEMYGLTNDHYSITLRRYAGMALTKLTFGDVANKATLCSMKGCMRALVAQLKSESEDLQQVIASVLRNLSWRADVNSKKTLREVGSVKALMECALEVKKESTLKSVLSALWNLSAHCTENKADICAVDGALAFLVGTLTYRSQTNTLAIIESGGGILRNVSSLIATNEDHRQILRENNCLQTLLQHLKSHSLTIVSNACGTLWNLSARNPKDQEALWDMGAVSMLKNLIHSKHKMIAMGSAAALRNLMANRPAKYKDANIMSPGSSLPSLHVRKQKALEAELDAQHLSETFDNIDNLSPKASHRSKQ [chain 1 N200K]
4,28.1,chain 1 LGTKVEMVYSLLSMLGTHDKDDMSRTLLAMSSSQDSCISMRQSGCLPLLIQLLHGNDKDSVLLGNSRGSKEARARASAALHNIIHSQPDDKRGRREIRVLHLLEQIRAYCETCWEWQEAHEPGMDQDKNPMPAPVEHQICPAVCVLMKLSFDEEHRHAMNELGGLQAIAELLQVDCEMYGLTNDHYSITLRRYAGMALTNLTFGDVANKATLCSMKGCMRALVAQLKSESEDLQQVIASVLRNLSWRADVNSKKTLREVGSVKALMECALEVKKESTLKSVLSALWNLSAHCTENKADICAVDGALAFLVGTLTYRSQTNTLAIIESGGGILRNVSSLIATNEDHRQILRENNCLQTLLQHLKSHSLTIVSNACGTLWNLSARNPKDQEALWDMGAVSMLKNLIHSKHKKIAMGSAAALRNLMANRPAKYKDANIMSPGSSLPSLHVRKQKALEAELDAQHLSETFDNIDNLSPKASHRSKQ [chain 1 M410K]
5,0.84,chain 1 LGTKVEMVYSLLSMLGTHDKDDMSRTLLAMSSSQDSCISMRQSGCLPLLIQLLHGNDKDSVLLGNSRGSKEARARASAALHNIIHSQPDDKRGRREIRVLHLLEQIRAYCETCWEWQEAHEPGMDQDKNPMPAPVEHQICPAVCVLMKLSFDEEHRHAMNELGGLQAIAELLQVDCEMYGLTNDHYSITLRRYAGMALTNLTFGDVANKATLCSMKGCMRALVAQLKSESEDLQQVIASVLENLSWRADVNSKKTLREVGSVKALMECALEVKKESTLKSVLSALWNLSAHCTENKADICAVDGALAFLVGTLTYRSQTNTLAIIESGGGILRNVSSLIATNEDHRQILRENNCLQTLLQHLKSHSLTIVSNACGTLWNLSARNPKDQEALWDMGAVSMLKNLIHSKHKMIAMGSAAALRNLMANRPAKYKDANIMSPGSSLPSLHVRKQKALEAELDAQHLSETFDNIDNLSPKASHRSKQ [chain 1 R242E]
6,132,chain 1 LGTKVEMVYSLLSMLGTHDKDDMSRTLLAMSSSQDSCISMRQSGCLPLLIQLLHGNDKDSVLLGNSRGSKEARARASAALHNIIHSQPDDKRGRREIRVLHLLEQIRAYCETCWEWQEAHEPGMDQDKNPMPAPVEHQICPAVCVLMKLSFDEEHRHAMNELGGLQAIAELLQVDCEMYGLTNDHYSITLRRYAGMALTNLTFGDVANKATLCSMKGCMRALVAQLKSESEDLQQVIASVLRNLSWRADVNSKKTLREVGSVKALMECALEVKKESTLKSVLSALWNLSAHCTENKADICAVDGALAFLVGTLTYRSQTNTLAIIESGGGILRNVSSLIATNEDHRQILRENNCLQTLLQHLKSHSLTIVSNACGTLWNLSARNPKDQEALWDMGAVSMLKNLIHSKHKMIAMGSAAALENLMANRPAKYKDANIMSPGSSLPSLHVRKQKALEAELDAQHLSETFDNIDNLSPKASHRSKQ [chain 1 R420E]

# Variants of: B2
# Assay: as above
row,percent of parent [%],Variant
1,33.7,chain 1 LGTKVEMVYSLLSMLGTHDKDDMSRTLLAMSSSQDSCISMRQSGCLPLLIQLLHGNDKDSVLLGNSRGSKEARARASAALHNIIHSQPDDKRGRREIRVLHLLEQIRAYCETCWEWQEAHEPGMDQDKNPMPAPVEHQICPAVCVLMKLSFDEEHRHAMNELGGLQAIAELLQVDCEMYGLTNDHYSITLRRYAGMALTNLTFGDVANKATLCSMKGCMRALVAQLKSESEDLQQVIASVLRNLSWRADVNSKKTLREVGSVKALMECALEVKKESTLKSVLSALWNLSAHCTENKADICAVDGALAFLVGTLTYRSQTNTLAIIESGGGILRNVSSLIATNEDHRQILRENNCLQTLLQHLKSHSLTIVSNACGTLWNLSARNPKDQEALWDMGAVSMLKNLIHSKHKKIAMGSAAALRNLMANRPAKYKDANIMSPGSSLPSLHVRKQKALEAELDAQHLSETFDNIDNLSPKASHRSKQ [chain 1 M410K]
2,41.3,chain 1 LGTKVEMVYSLLSMLGTHDKDDMSRTLLAMSSSQDSCISMRQSGCLPLLIQLLHGNDKDSVLLGNSRGSKEARARASAALHNIIHSQPDDKRGRREIRVLHLLEQIRAYCETCWEWQEAHEPGMDQDKNPMPAPVEHQICPAVCVLMKLSFDEEHRHAMNELGGLQAIAELLQVDCEMYGLTNDHYSITLRRYAGMALTNLTFGDVANKATLCSMKGCMRALVAQLKSESEDLQQVIASVLRNLSWRADVNSKKTLREVGSVKALMECALEVKKESTLKSVLSALWNLSAHCTENKADICAVDGALAFLVGTLTYRSQTNTLAIIESGGGILRNVSSLIATNEDHRQILRENNCLQTLLQHLKSHSLTIVSNACGTLWNLSARNPKDQEALWDMGAVSMLKNLIHSKHKMIAMGSAAALENLMANRPAKYKDANIMSPGSSLPSLHVRKQKALEAELDAQHLSETFDNIDNLSPKASHRSKQ [chain 1 R420E]
3,0.38,chain 1 LGTKVEMVYSLLSMLGTHDKDDMSRTLLAMSSSQDSCISMRQSGCLPLLIQLLHGNDKDSVLLGNSRGSKEARARASAALHNIIHSQPDDKRGRREIRVLHLLEQIRAYCETCWEWQEAHEPGMDQDKNPMPAPVEHQICPAVCVLMKLSFDEEHRHAMNELGGLQAIAELLQVDCEMYGLTNDHYSITLRRYAGMALTNLTFGDVANKATLCSMKGCMRALVAQLKSESEDLQQVIASVLRKLSWRADVNSKKTLREVGSVKALMECALEVKKESTLKSVLSALWNLSAHCTENKADICAVDGALAFLVGTLTYRSQTNTLAIIESGGGILRNVSSLIATNEDHRQILRENNCLQTLLQHLKSHSLTIVSNACGTLWNLSARNPKDQEALWDMGAVSMLKNLIHSKHKMIAMGSAAALRNLMANRPAKYKDANIMSPGSSLPSLHVRKQKALEAELDAQHLSETFDNIDNLSPKASHRSKQ [chain 1 N243K]
4,1.86,chain 1 LGTKVEMVYSLLSMLGTHDKDDMSRTLLAMSSSQDSCISMRQSGCLPLLIQLLHGNDKDSVLLGNSRGSKEARARASAALHNIIHSQPDDKRGRREIRVLHLLEQIRAYCETCWEWQEAHEPGMDQDKNPMPAPVEHQICPAVCVLMKLSFDEEHRHAMNELGGLQAIAELLQVDCEMYGLTNDHYSITLRRYAGMALTKLTFGDVANKATLCSMKGCMRALVAQLKSESEDLQQVIASVLRNLSWRADVNSKKTLREVGSVKALMECALEVKKESTLKSVLSALWNLSAHCTENKADICAVDGALAFLVGTLTYRSQTNTLAIIESGGGILRNVSSLIATNEDHRQILRENNCLQTLLQHLKSHSLTIVSNACGTLWNLSARNPKDQEALWDMGAVSMLKNLIHSKHKMIAMGSAAALRNLMANRPAKYKDANIMSPGSSLPSLHVRKQKALEAELDAQHLSETFDNIDNLSPKASHRSKQ [chain 1 N200K]
5,0.09,chain 1 LGTKVEMVYSLLSMLGTHDKDDMSRTLLAMSSSQDSCISMRQSGCLPLLIQLLHGNDKDSVLLGNSRGSKEARARASAALHNIIHSQPDDKRGRREIRVLHLLEQIRAYCETCWEWQEAHEPGMDQDKNPMPAPVEHQICPAVCVLMKLSFDEEHRHAMNELGGLQAIAELLQVDCEMYGLTNDHYSITLRRYAGMALTNLTFGDVANEATLCSMKGCMRALVAQLKSESEDLQQVIASVLRNLSWRADVNSKKTLREVGSVKALMECALEVKKESTLKSVLSALWNLSAHCTENKADICAVDGALAFLVGTLTYRSQTNTLAIIESGGGILRNVSSLIATNEDHRQILRENNCLQTLLQHLKSHSLTIVSNACGTLWNLSARNPKDQEALWDMGAVSMLKNLIHSKHKMIAMGSAAALRNLMANRPAKYKDANIMSPGSSLPSLHVRKQKALEAELDAQHLSETFDNIDNLSPKASHRSKQ [chain 1 K209E]
6,1.48,chain 1 LGTKVEMVYSLLSMLGTHDKDDMSRTLLAMSSSQDSCISMRQSGCLPLLIQLLHGNDKDSVLLGNSRGSKEARARASAALHNIIHSQPDDKRGRREIRVLHLLEQIRAYCETCWEWQEAHEPGMDQDKNPMPAPVEHQICPAVCVLMKLSFDEEHRHAMNELGGLQAIAELLQVDCEMYGLTNDHYSITLRRYAGMALTNLTFGDVANKATLCSMKGCMRALVAQLKSESEDLQQVIASVLENLSWRADVNSKKTLREVGSVKALMECALEVKKESTLKSVLSALWNLSAHCTENKADICAVDGALAFLVGTLTYRSQTNTLAIIESGGGILRNVSSLIATNEDHRQILRENNCLQTLLQHLKSHSLTIVSNACGTLWNLSARNPKDQEALWDMGAVSMLKNLIHSKHKMIAMGSAAALRNLMANRPAKYKDANIMSPGSSLPSLHVRKQKALEAELDAQHLSETFDNIDNLSPKASHRSKQ [chain 1 R242E]
